B1: 1.1b-6GS-1.1a (other)
chain: QVQLVESGGGLVKPGGSLRLSCAASGFTFSDYTMTWMRQAPGKGLEWVSYISTGGTIKYYTDSVKGRFTISRDNAKNSLYLQMNSLRADDTAVYYCAREAPLRLGESPHDAFDIWGQGTMVTVSSGGGGSGGGGSGGGGSGGGGSGGGGSGGGGSEVQLLESGGGSVQPGRSLRLSCAASGFTFDDHAMHWVRQAPGKGLEWVSGISWNSGSMGYADSVKDRFTISRDNAKSSLYLQMNSLRAEDTALYYCVREKGPGLTGSTADYYGLDVWGQGTMVTVSS
notes: Biparatopic VH-linker-VH
B2: 1.57b-4GS-1.1a (other)
chain: QVQLVESGGGLVKPGGSLRLSCAASGFTFSDNSMTWMRQAPGKGLEWVSYISSGGGVIFYADSVKGRFTISRDNAKNSLYLQMNSLRADDTAVYYCAREAPLRLGESPHDAFDISGQGTMVTVSSGGGGSGGGGSGGGGSGGGGSEVQLLESGGGSVQPGRSLRLSCAASGFTFDDHAMHWVRQAPGKGLEWVSGISWNSGSMGYADSVKDRFTISRDNAKSSLYLQMNSLRAEDTALYYCVREKGPGLTGSTADYYGLDVWGQGTMVTVSS
notes: Biparatopic VH-linker-VH
B3: 1.1a (VHH)
VHH: EVQLLESGGGSVQPGRSLRLSCAASGFTFDDHAMHWVRQAPGKGLEWVSGISWNSGSMGYADSVKDRFTISRDNAKSSLYLQMNSLRAEDTALYYCVREKGPGLTGSTADYYGLDVWGQGTMVTVSS
notes: also called Humabody 1.1a; VH single domain antibody 1.1a

Legend:
[1] = target: T1, human PD-1 expressed on cells (CHO TREX human PD1 cell line, full-length human PD-1 sequence) (human, UniProt Q15116 21-288); assay: cell-based or functional assay
[2] = target: T2, mouse PD-1 protein (R&D Systems cat no. 1021-PD) (mouse, UniProt Q02242 25-167); assay: HTRF binding assay, 2 nM mouse PD1
T2 construct: Bought protein
T2 sequence (looked up): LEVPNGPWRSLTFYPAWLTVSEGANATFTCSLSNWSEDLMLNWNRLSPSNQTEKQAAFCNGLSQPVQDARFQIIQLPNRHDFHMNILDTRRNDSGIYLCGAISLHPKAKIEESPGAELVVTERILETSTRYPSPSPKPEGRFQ
Method: (§1) Purified VH were tested for their ability to bind to human PD1 (R&D Systems cat no. 1086-PD), cynomolgus PD-1 (Acro Biosystems cat no. PD-1-C5254) and mouse PD1 (R&D Systems cat no. 1021-PD) in an HTRF Binding assay format. All reagents and serially diluted VH were prepared in assay buffer containing PBS, 0.1% BSA and 0.4M Potassium Fluoride. Samples or assay buffer (non-specific binding) were incubated with 2 nM human/cynomolgus or mouse PD1, 1 nM Anti human-Fc Cryptate PAb (Cisbio cat. no. 61HFCKLB) and 30 nM anti His-D2 (CisBio cat no 61HISDLA) in black 384-shallow well assay plates for a minimum of 3 hours at room temperature. Time-resolved fluorescent emission at 620 nm and 665 nm was measured following excitation at 337 nm on the BMG PHERAstar plate reader. The HTRF ratio were calculated ((665 nm emission/620 nm emission)*10000) and the data corrected for (non-specific binding) to give the specific binding signal.

[3] = target: T3, recombinant human PD-1 Fc chimera (human, UniProt Q15116 25-167); assay: HTRF binding assay, 2 nM recombinant PD1, anti His-D2 and anti human-Fc cryptate
T3 construct: Bought protein (R&D 1086-PD in the HTRF assay); also called human PD-1-hu Fc; huPD-1Fc; not shown: human Fc
Method: as §1

[4] = target: T4, cynomolgus PD-1 recombinant protein (Acro Biosystems cat no. PD-1-C5254) (cynomolgus); assay: as above
T4 construct: Bought protein; also called cyno PD1
Method: as §1

[5] = target: T3, recombinant human PD-1 Fc chimera; assay: SPR Biacore T200, single cycle kinetics, human PD-1-hu Fc amine coupled to CM5, 1:1 model
Method: Binding kinetics of certain humabodies binding to human PD-1-hu Fc were measured by surface plasmon resonance (SPR) technology using Biacore T200 instrument (GE Healthcare). Recombinant human PD-1-hu Fc was immobilized by standard amine coupling to CM5 sensors chip (GE Healthcare) using 0.1 mg/ml solution of antigen in 10 mM sodium acetate at pH 5.5. For the reference flow cell, a blank immobilisation was carried out. Single cycle kinetics assays were used to study the interaction, a five point, three-fold dilution series of each Humabody® VH was made with a top concentration of 30 nM. The binding kinetics were followed by flowing the Humabody® VH over the chip surface in HBS EP+ buffer at a flow rate of 30 μl/min. The contact time for each of the association steps was 180 seconds and the dissociation step was varied between 1200-3600 seconds. The data was fitted to a 1:1 binding model after double reference subtraction using the Biacore T200 Evaluation software.

[6] = target: T1, human PD-1 expressed on cells (CHO TREX …); assay: FMAT: inhibition of PDL-2 (100 pM) binding to CHO human PD-1 cells
Method: (§2) Purified VH were serially diluted in FMAT assay buffer and tested for binding to CHO human PD-1 cells as described above and for inhibition of human PD-L1/PD-L2 binding to CHO human PD-1 cells. All reagents and serially diluted VH were prepared in FMAT assay buffer. VH, buffer (total binding controls) or excess competitor (non-specific binding control) were incubated with 400 pM human Fc tagged human PD-L1 or 100 pM PDL-2, 4 nM anti human Fc-Alexa Fluor-488 and 2000 per well CHO human PD-1 DRAQ5 stained cells in a 384 well black clear-bottomed assay plates. Plates were incubated for 2 hours at room temperature then fluorescence measured in the FL2 (502 nm-537 nm) and FL5 (677-800 nm) channels on the Mirrorball plate reader (TTP) following excitation at 488 nm and 640 nm. Data was expressed as a % of the total binding control (i.e. % control) after subtraction of the background signal determined from the non-specific binding control wells. The results are shown in FIG. 5 and in Tables 8 and 9 below.

[7] = target: T1, human PD-1 expressed on cells (CHO TREX …); assay: FMAT: inhibition of human Fc tagged human PD-L1 (400 pM) binding to CHO human PD-1 cells
Method: as §2

[8] = target: T1, human PD-1 expressed on cells (CHO TREX …); assay: as above; remark: listed apart in the source
Method: as §2

[9] = target: T5, Strep tagged recombinant human PD-1 (human, UniProt Q15116 25-167, limits assumed); assay: SPR Biacore T200, single cycle kinetics, Strep tagged human PD-1 amine coupled, 1:1 model
T5 construct: whole entry named; also called Strep tagged human PD-1; not shown: Strep tag
Method: Single cycle kinetics assays were used to study the interaction between human PD-1 with Humabody VHs on a Biacore T200 instrument (GE Healthcare). Strep tagged recombinant human PD-1 was amine coupled to one flow cell of a CM-5 chip to create a low density surface (14 RU) using standard Biacore reagents. For the reference flow cell, a blank immobilisation was carried out. A five point, three-fold dilution series of each Humabody VH was made with a top concentration of 25 nM. The binding kinetics were followed by flowing the Humabody VH over the chip surface in HBS EP+ buffer at a flow rate of 30 μl/min. The contact time for each of the association steps was 180 seconds and the dissociation step was 3300 seconds. The data was fitted to a 1:1 binding model after double reference subtraction using the Biacore T200 Evaluation software.

[10] = target: T3, recombinant human PD-1 Fc chimera; assay: SPR Biacore T200, single cycle kinetics, human Fc tagged PD-1 captured on Protein G, 1:1 model
Method: Single cycle kinetics assays were used to study the interaction between human Fc tagged human PD-1 with Humabody® VH on a Biacore T200 instrument (GE Healthcare). Protein G was amine coupled to two flow cells of a CM-5 chip. Human Fc tagged recombinant human PD-1 was captured onto one of the flow cells. The other was used as the reference flow cell. A five point, three-fold dilution series of each Humabody® VH was made with a top concentration within the range of 50 to 150 nM. The binding kinetics were followed by flowing the Humabody® VH over the chip surface in HBS EP+ buffer at a flow rate of 30 μl/min. The contact time for each of the association steps was 180 seconds and the dissociation step was 3600 seconds. The data was fitted to a 1:1 binding model after double reference subtraction using the Biacore T200 Evaluation software.

[11] = target: T3, recombinant human PD-1 Fc chimera; assay: BLI Octet, human PD-1-hu Fc amine coupled to biosensors, 1:1 model
Method: Binding kinetics for Humabody® 1.1a to human PD-1-hu Fc are shown below. These were measured in real-time bio-layer interferometer based biosensor Octet (ForteBio). Recombinant human PD-1-hu Fc was immobilized by standard amine coupling to amine reactive biosensors in 10 mM sodium acetate at pH 5.0. All the binding studies were performed in HBS-ET Octet kinetics buffer. Biosensors were always washed in Octet kinetics buffer in between different steps. A seven point, two-fold dilution series of each Humabody® VH was made with a top concentration of 30 nM. The contact time for each of the association steps was 300 seconds and the dissociation step was varied between 400-600 seconds. Kinetic association (kₐ) and dissociation (kd) rate constants were determined by processing and fitting the data to a 1:1 binding model using ForteBio Analysis software.

T1 sequence (Q15116 21-288): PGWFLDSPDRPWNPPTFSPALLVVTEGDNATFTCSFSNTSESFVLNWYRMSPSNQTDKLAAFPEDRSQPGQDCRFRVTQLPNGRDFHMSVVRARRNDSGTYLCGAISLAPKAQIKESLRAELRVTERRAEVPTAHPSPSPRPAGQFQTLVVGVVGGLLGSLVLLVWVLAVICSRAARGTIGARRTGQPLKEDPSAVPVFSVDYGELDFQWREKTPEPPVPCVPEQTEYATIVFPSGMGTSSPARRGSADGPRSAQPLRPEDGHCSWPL
T3 sequence (Q15116 25-167 limits assumed, change not shown): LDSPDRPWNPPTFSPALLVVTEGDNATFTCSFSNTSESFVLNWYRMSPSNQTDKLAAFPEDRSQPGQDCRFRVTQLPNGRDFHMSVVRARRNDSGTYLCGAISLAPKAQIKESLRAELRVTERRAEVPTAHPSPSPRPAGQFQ
T5 sequence (Q15116 25-167 limits assumed): as the sequence (Q15116 25-167 limits assumed, change not shown) above

| Binder | EC50 (M), NFAT-Luciferase reporter gene assay [1] [M] | binding result [2] | EC50 [3] [pM] | EC50 [4] [pM] | Kd [5] [pM] | koff [5] [s⁻¹] | kon [5] [M⁻¹ s⁻¹] | IC50 [6] [pM] | IC50 [7] [pM] | IC50 [8] [pM] | Kd [9] [pM] | koff [9] [s⁻¹] | kon [9] [M⁻¹ s⁻¹] | Kd [10] [pM] | koff [10] [s⁻¹] | kon [10] [M⁻¹ s⁻¹] | koff [11] [s⁻¹] | kon [11] [M⁻¹ s⁻¹] |
| --- | --- | --- | --- | --- | --- | --- | --- | --- | --- | --- | --- | --- | --- | --- | --- | --- | --- | --- |
| B1 | 1.1e-08 | no binding | 500 | 920 | 28 | 6.39e-06 | 228000 | – | – | – | – | – | – | – | – | – | – | – |
| B2 | 1.7e-09 | no binding | 1200 | 2100 | – | – | – | 1200 | 1300 | 900 | 111 | 4.86e-05 | 437000 | 0.0594 | 4.59e-08 | 773000 | – | – |
| B3 | – | – | – | – | 676 | 7.35e-05 | 109000 | – | – | – | – | – | – | – | – | – | 0.000901 | 459000 |
